Data from publication PMC8622166 (International Journal of Molecular Sciences, 2021).

Target: RAC3 (human, UniProt P60763 1-192)
Experiment: stopped-flow fluorimetry; association (kobs) at one concentration: 2 µM GDI mixed with 0.2 µM mdGDP-bound RHO GTPase; 25 °C, 30 mM Tris/HCl pH 7.5, 10 mM K2HPO4/KH2PO4 pH 7.5, 5 mM MgCl2, 3 mM DTT
Conditions: both partners purified

B1: GDI3ΔN20 (domain or fragment, human, UniProt Q99819 21-225, looked up)
chain: LCARVLLADKEGGPPAVDEVLDEAVPEYRAPGRKSLLEIRQLDPDDRSLAKYKRVLLGPLPPAVDPSLPNVQVTRLTLLSEQAPGPVVMDLTGDLAVLKDQVFVLKEGVDYRVKISFKVHREIVSGLKCLHHTYRRGLRVDKTVYMVGSYGPSAQEYEFVTPVEEAPRGALVRGPYLVVSLFTDDDRTHHLSWEWGLCICQDWKD
- binding result: binds
